Laboratory results taken from article doi:10.1101/2025.11.11.687647v1.

Substrate: CC(=O)C(=O)O
Assay: purified protein
Conditions: pH 8.0; 25.0 °C

B1: MtPC (Mycobacterium tuberculosis pyruvate carboxylase) (Mycobacterium tuberculosis H37Rv) (protein)
chain: MFSKVLVANRGEIAIRAFRAAYELGVGTVAVYPYEDRNSQHRLKADESYQIGDIGHPVHAYLSVDEIVATARRAGADAIYPGYGFLSENPDLAAACAAAGISFVGPSAEVLELAGNKSRAIAAAREAGLPVLMSSAPSASVDELLSVAAGMPFPLFVKAVAGGGGRGMRRVGDIAALPEAIEAASREAESAFGDPTVYLEQAVINPRHIEVQILADNLGDVIHLYERDCSVQRRHQKVIELAPAPHLDAELRYKMCVDAVAFARHIGYSCAGTVEFLLDERGEYVFIEMNPRVQVEHTVTEEITDVDLVASQLRIAAGETLEQLGLRQEDIAPHGAALQCRITTEDPANGFRPDTGRISALRTAGGAGVRLDGSTNLGAEISPYFDSMLVKLTCRGRDLPTAVSRARRAIAEFRIRGVSTNIPFLQAVLDDPDFRAGRVTTSFIDERPQLLTARASADRGTKILNFLADVTVNNPYGSRPSTIYPDDKLPDLDLRAAPPAGSKQRLVKLGPEGFARWLRESAAVGVTDTTFRDAHQSLLATRVRTSGLSRVAPYLARTMPQLLSVECWGGATYDVALRFLKEDPWERLATLRAAMPNICLQMLLRGRNTVGYTPYPEIVTSAFVQEATATGIDIFRIFDALNNIESMRPAIDAVRETGSAIAEVAMCYTGDLTDPGEQLYTLDYYLKLAEQIVDAGAHVLAIKDMAGLLRPPAAQRLVSALRSRFDLPVHLHTHDTPGGQLASYVAAWHAGADAVDGAAAPLAGTTSQPALSSIVAAAAHTEYDTGLSLSAVCALEPYWEALRKVYAPFESGLPGPTGRVYHHEIPGGQLSNLRQQAIALGLGDRFEEIEEAYAGADRVLGRLVKVTPTSKVVGDLALALVGAGVSADEFASDPARFGIPESVLGFLRGELGDPPGGWPEPLRTAALAGRGAARPTAQLAADDEIALSSVGAKRQATLNRLLFPSPTKEFNEHREAYGDTSQLSANQFFYGLRQGEEHRVKLERGVELLIGLEAISEPDERGMRTVMCILNGQLRPVLVRDRSIASAVPAAEKADRGNPGHIAAPFAGVVTVGVCVGERVGAGQTIATIEAMKMEAPITAPVAGTVERVAVSDTAQVEGGDLLVVVS
- Km: 2310 µM
